# Test results: US20250263490A1 (VIB VZW, published 2025)
# What was measured:
# [1] = target: T1, recombinant human domain 1-3His6 of the cation-independent mannose-6-phosphate receptor (human, UniProt P11717 41-467); experiment: BLI exp 2, dissoc pH 5
# T1 construct: Biotinylated (NHS-PEG4-biotin) for BLI; Glycosylated; also called hDom1-3His6; hCI-M6PRD1-D3
# Method: (§1) For each of the 11 anti-CI-M6PR VHHs, a biolayer interferometry (BLI) experiment was performed in which the hDom₁₋₃His₆ was biotinylated and coupled to streptavidin biosensor tips. Afterwards, the tips were incubated with serially diluted VHHs during the association phase and dissociation was performed at pH 7.4. Similarly, dissociation was performed at pH 7.0, pH 6.0 and pH 5.0 as well after regeneration of the biosensor tips. […] The anti-CI-M6PR antibody (clone 2G11) and GBP were used as positive and negative controls, respectively.
# Analysis of the binding kinetics was performed using an Octet Red96 (FortéBio) device with Streptavidin SA Biosensor tips (VWR, 733-2145). To this end, 1 mL of hCI-M6PR_D1-D3 (0.5 mg/mL in 50 mM MES, 150 mM NaCl, pH 6.5) was incubated at room temperature for 30 minutes with a two-fold molar excesses of EZ-Link™ NHS-PEG₄-Biotin (Thermo Fischer, A39259) and NaHCO₃ (100 mM, pH 8.3). Biotinylated hCIMPR_D1-D3 was purified using a Zeba spin desalting column (Thermo Fischer, 89890) and protein concentration was calculated by measuring the absorbance at 280 nm (extinction coefficient 50320 M¹ cm⁻¹). Two-fold biotin-labelled antigen was loaded on the tips (2.5 μg/mL) and subsequently dipped into a particular anti-CI-M6PR VHH-containing solution (ranging from 0-100 nM). Serial VHH dilutions were made in kinetics buffer (0.2 M Na₂HPO₄, 0.1 M Na⁺ citrate, 0.01% BSA, 0.002% Tween20, pH 7.4). After association (100 sec), dissociation was conducted (500 sec) for each anti-CI-M6PR VHH in the kinetics buffer, followed by biosensor regeneration in glycine (10 mM, pH 3) and neutralisation. The same cycle was repeated with dissociation performed in kinetics buffer of pH 7.0, 6.5, 6.0, 5.5, and 5.0.
# A reference well and reference sensors were subtracted from ligand sensors afterwards and Savitsky-Golay filtering was applied on the data. Fitting of the data was performed using a 1:1 model, grouped per dissociation pH.
# [2] = target: T1, recombinant human domain 1-3His6 of the …; experiment: ELISA on coated antigen, 2nd of 2 repeats
# Method: FIGS. 4A-4B. Affinity of anti-CI-M6PR VHHs for recombinant human CI-M6PR Domain 1-3His₆ determined by ELISA. A & B. Measurements for each of the 11 anti-CI-M6PR VHHs in serial dilution binding to the coated human CI-M6PR Domain 1-3His₆ antigen. Detection was performed using an anti-VHH antibody coupled to HRP, and measured as the absorbance of the TMB substrate at 450 nm, correlating to the amount of bound VHH as plotted at the Y-axis. The Log₁₀ concentrations of the serially diluted VHHs were plotted at the X-axis. […] A & B represent replicates but using a different concentration of human CI-M6PR Domain 1-3His₆ (in (FIG. 4A): 0-0.75 μM and in (FIG. 4B): 0-1 μM).
# We evaluated the affinity of the VHHs against the hDom₁₋₃His₆ using ELISA. Coated hDom₁₋₃His₆ was incubated with serially diluted VHH that was afterwards detected using an anti-VHH antibody, coupled to HRP.
# [3] = target: T1, recombinant human domain 1-3His6 of the …; experiment: BLI exp 2, dissoc pH 7.4
# Method: as §1
# Analysis of the binding kinetics was performed using an Octet Red96 (FortéBio) device with Streptavidin SA Biosensor tips (VWR 733-2145). Therefore, 1 mL of human domain₁₋₃His₆ (0.5 mg/mL in 50 mM MES, 150 mM NaCl, pH 6.5) was incubated at room temperature for 30 minutes with EZ-Link™ NHS-PEG4-Biotin (1 mg) (Thermo Fischer A39259) and NaHCO₃ (100 mM). Biotinylated human domain₁₋₃His₆ was purified using a Zeba spin desalting Column™ (7K MWCO, 2 mL, Thermo Fischer 89890) and 1 μg/mL was used for immobilization on the Streptavidin SA Biosensor tips. The loaded tips were dipped into a particular anti-CI-M6PR VHH solution, serially diluted in kinetics buffer (0.2M NaH₂PO₄, 0.1M Na⁺ citrate, 0.01% BSA, 0.002% Tween20, pH 7.4). This was followed by dissociation of the particular anti-CI-M6PR VHH in kinetics buffer of pH 7.4, followed by regeneration in Glycine (10 mM, pH 3) and neutralisation. Same cycle was repeated but the dissociation was performed at pH 7.0, 6.0, 5.0, 4.5 and 4.0. A reference well and reference sensors were subtracted from ligand sensors afterwards and Savitsky-Golay filtering was applied on the data. Fitting of the data was performed using a 1:1 model, grouped per pH of dissociation.
# [4] = target: T1, recombinant human domain 1-3His6 of the …; experiment: BLI at pH 7.4, 2nd of 2 repeats
# [5] = target: T2, recombinant mouse domain 1-3His6 of CI-M6PR (mouse, UniProt Q07113 36-418); experiment: ELISA: coated mouse CI-M6PR Domain 1-3His6, serially diluted VHH, anti-VHH-HRP, TMB, Abs 450 nm; sigmoidal regression [table at the right]
# T2 construct: Genbank NM_010515.2); Range includes the signal peptide; also called mDom1-3His6; mCI-M6PRD1-D3
# Method: FIGS. 5A-5B. Affinity of anti-CI-M6PR VHHs for recombinant mouse CI-M6PR Domain 1-3His₆ determined by ELISA. (FIG. 5A) Measurement for each of the 11 anti-CI-M6PR VHHs in serial dilution binding to the coated mouse antigen. Detection was performed using an anti-VHH antibody coupled to HRP, and measured as the absorbance of the TMB substrate at 450 nm, correlating to the amount of bound VHH as plotted at the Y-axis. The Log₁₀ concentrations of the serially diluted VHHs were plotted at the X-axis.
# To evaluate the cross-reactivity of the anti-CI-M6PR nanobodies between the human and mouse CI-M6PR domain 1-3His₆ antigen, ELISA was performed with the eleven serially diluted anti-CI-M6PR nanobodies. […] By performing sigmoidal regression on the derived absorbance curves, half-maximal effective concentration (EC₅₀) values of each VHH were acquired, representing the required concentration to occupy 50% of the coated antigen. As a negative control, GBP was included in the assay.
# T2 sequence (Q07113 other isoform, or with tags, fused parts or gaps): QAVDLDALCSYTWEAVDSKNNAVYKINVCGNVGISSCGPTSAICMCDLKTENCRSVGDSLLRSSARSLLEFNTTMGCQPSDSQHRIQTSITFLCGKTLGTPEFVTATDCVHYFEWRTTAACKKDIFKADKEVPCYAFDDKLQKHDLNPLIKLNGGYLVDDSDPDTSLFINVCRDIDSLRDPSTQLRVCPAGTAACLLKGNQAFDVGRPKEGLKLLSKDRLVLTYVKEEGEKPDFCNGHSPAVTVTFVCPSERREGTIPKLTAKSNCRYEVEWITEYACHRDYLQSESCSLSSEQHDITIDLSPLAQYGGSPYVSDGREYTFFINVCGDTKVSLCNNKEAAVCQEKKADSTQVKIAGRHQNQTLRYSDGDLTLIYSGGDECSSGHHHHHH
koff [1] [s⁻¹],kon [1] [M⁻¹ s⁻¹],EC50 [2] [nM],koff [3] [s⁻¹],koff [4] [s⁻¹],EC50 [5] [nM],Kd [3] [nM],kon [3] [M⁻¹ s⁻¹],Kd [4] [nM],kon [4] [M⁻¹ s⁻¹],Binder
0.084,2.4e+06,0.165,0.00065,0.00065,595,–,–,–,–,"anti-CI-M6PR VHH8 (VHH, His6-tagged (Pichia pastoris)) VHH: QVQLQESGGGLVQAGGSLRLSCEASGRTFNTYNWGWFRQAPGKEREFVAAIRWSSSKTSYADSVKGRFTISRDNAKNTIYLQMNSLKPEDTAVYYCAASIVDFTTNPSHFGSWGQGTQVTVSS"
0.0253,225000,30.5,0.00391,0.00391,330,51,76700,51,76700,"anti-CI-M6PR VHH11 (VHH, His6-tagged; made in Pichia pastoris) VHH: QVQLQESGGGLVQAGDSLKLSCTASGPTFSEITGGWFRQVPGKEREFVASISSTGITTYYTDSVKGRFTVSRDNAKNTMYLQMNSLKPEDTGVYYCAARSTSRSIAITVGYDYWGQGTQVTVSS"
0.0156,330000,–,0.00352,0.00352,9750,4.74,743000,4.74,743000,"anti-CI-M6PR VHH6 (VHH, His6-tagged; made in E. coli) VHH: QVQLQESGGGLVQAGGSLRLSCAVSGSISSIGGMGWFRQAPGKQREFVAVILNNSGMTSYADSVKGRFTISRGNSKNTMYLQMNSLKPEDTAVYYCNYSGYWGQGTQVTVSS"
0.055,55000,1.19,0.0118,0.0118,–,9.08,1.3e+06,9.08,1.3e+06,"anti-CI-M6PR VHH7 (VHH, His6-tagged (Pichia pastoris)) VHH: QVQLQESGGGLVQPGGSLRLSCAASGIIFSDNRMDWYRQAPGKQREWVATLASYGWKTYADSVKGRFTISRDNTKNTVYLRMNSLKPEDTAVYYCKASSPVLNDIWGQGTQVTVSS"
0.0496,590000,0.251,0.000444,0.000444,2750,0.282,1.57e+06,0.282,1.57e+06,"anti-CI-M6PR VHH9 (VHH, His6-tagged; made in Pichia pastoris) VHH: QVQLQESGGGLVQAGGSLRLSCAASGTILSIKTMGWYRQAPGKEREWVATITSSSIPMYADSVKGRFTISRDDAKNTVYLQMNSLKPEDTGVYYCNAPWTDYWGQGTQVTVSS"
0.072,–,19.4,0.0099,0.0099,355,~11.2,1e+06,~11.2,1e+06,"anti-CI-M6PR VHH1 (VHH, His6-tagged; made in Pichia pastoris, later also in E. coli WK6) VHH: QVQLQESGGGLVQPGGSLRLSCVASGFTFDRYWMNWLRQIPGKEIEWVSTINTGGTGTYYDDSVKGRFSISRDDAKNTLYLTMNSLKTEDTAVYYCARGATYYRGNSAIRGQGTQVTVSS"
0.0106,91100,0.224,0.00177,0.00177,1620,46.5,38100,46.5,38100,"anti-CI-M6PR VHH10 (VHH, His6-tagged; made in Pichia pastoris) VHH: QVQLQESGGGSVQAGGSLRLSCAPAGRTFSRIRMGWFRQAPGKEREFVAAISSGGLSYYADSMKGRFTISRDNAKNTVLLQMNSLEPDDTAVYYCAAVLNDYIDDYVARNPTLYDYWGQGTQVTVSS"
0.00729,729000,70.1,0.00133,0.00133,873,2.34,571000,–,–,"anti-CI-M6PR VHH4 (VHH, His6-tagged; made in Pichia pastoris) VHH: QVQLQESGGGLVQAGGSLRLSCAASGRTFSNYVMGWFRQAPGKEREFVGSISQGGKMTYYPDSVKGRFTISRDNAKNTMYLQMDGLKPEDTAVYYCAVSRGYPMVRVSEVDYWGQGTQVTVSS"
0.000369,55600,0.104,0.000345,0.000345,670,7.09,48600,7.1,48600,"anti-CI-M6PR VHH3 (VHH, His6-tagged; made in Pichia pastoris) VHH: QVQLQESGGGLVQPGGSLRLSCAAFGLNFKNFDMIWFRQAPGEERDIVAAISSSSSTIWYEDSVKGRFTISRDNAKNTVYLQMNSLKPEDTAVYYCAAALTSWRRPDYWGQGTQVTVSS"
0.033,2.33e+08,0.0647,0.00018,0.00018,562,–,1.8e+06,~0.1,1.8e+06,"anti-CI-M6PR VHH5 (VHH, His6-tagged; made in Pichia pastoris, later also in E. coli WK6) VHH: QVQLQESGGGLVQAGGSLKLSCAAAGRTFSRLAMGWFRQAPGKEREFVAAISENGDSIHYSDSVKGRFAVSRDNAKNTVYLQMNSLKPEDTAIYYCAADRAAYYCSGSGCYPSRAPAAASYDYWGQGTQVTVSS"
